From PMC6291252 (PLoS ONE, 2018)

Molecular target: Recombinant TcdB (aa 1751–2366), biotinylated (Clostridioides difficile; strain of …, UniProt P18177)
Test: SPR
Settings: both partners purified

Recombinant TcdB (aa 1751–2366), biotinylated, sequence (P18177 1751-2366): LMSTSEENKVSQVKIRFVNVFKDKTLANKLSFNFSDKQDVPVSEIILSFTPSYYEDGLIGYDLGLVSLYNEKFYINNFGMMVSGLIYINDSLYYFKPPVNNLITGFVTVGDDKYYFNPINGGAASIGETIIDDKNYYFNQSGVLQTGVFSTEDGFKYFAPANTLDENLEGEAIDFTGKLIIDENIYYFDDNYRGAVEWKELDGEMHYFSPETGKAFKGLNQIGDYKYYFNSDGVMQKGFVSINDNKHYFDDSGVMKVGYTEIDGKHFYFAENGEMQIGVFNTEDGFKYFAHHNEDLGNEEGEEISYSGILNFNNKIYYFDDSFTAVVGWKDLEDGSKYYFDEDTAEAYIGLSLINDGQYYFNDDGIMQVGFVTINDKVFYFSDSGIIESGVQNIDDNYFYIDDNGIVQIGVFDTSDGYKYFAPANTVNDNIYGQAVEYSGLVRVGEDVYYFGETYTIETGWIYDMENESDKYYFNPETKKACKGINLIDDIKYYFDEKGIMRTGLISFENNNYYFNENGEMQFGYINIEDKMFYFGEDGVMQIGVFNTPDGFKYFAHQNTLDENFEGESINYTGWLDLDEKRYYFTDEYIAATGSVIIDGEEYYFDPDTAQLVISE

B1: B39 (VHH)
VHH: QVQLVESGGGLVQAGGSLRLSCAASGLTFSRYVMGWFRQAPGKEREFVAAITWGGTPNYADSVKGRFTISRDNSKNTQYLQMNSLKPEDTAVYYCAAGLGWDSRYSQSYNYWGQGTQVTVSS
Kd: 0.07 nM
koff: 0.00256 s⁻¹
kon: 3.44e+07 M⁻¹ s⁻¹
